One test concerns the target T1, Vms1 (Vms1^1-417) (Saccharomyces cerevisiae, UniProt Q04311).
T1 sequence (Q04311 1-417): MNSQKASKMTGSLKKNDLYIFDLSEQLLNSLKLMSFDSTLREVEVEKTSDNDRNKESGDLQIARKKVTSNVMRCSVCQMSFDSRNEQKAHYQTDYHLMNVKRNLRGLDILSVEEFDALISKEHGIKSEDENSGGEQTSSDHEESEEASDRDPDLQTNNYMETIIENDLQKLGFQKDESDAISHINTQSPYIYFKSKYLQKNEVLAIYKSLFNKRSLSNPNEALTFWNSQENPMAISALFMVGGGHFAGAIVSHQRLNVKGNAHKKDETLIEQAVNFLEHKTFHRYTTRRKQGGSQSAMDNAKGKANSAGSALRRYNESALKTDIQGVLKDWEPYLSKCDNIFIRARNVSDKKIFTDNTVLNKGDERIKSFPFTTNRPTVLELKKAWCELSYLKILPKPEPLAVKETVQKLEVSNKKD
The test is described as follows: lipid blot on nitrocellulose. The test is classed as binding. As to conditions: TBS pH 7.5, 4 °C, 3% BSA (blot); competitive with LRS for the MTD.

For test [1], the target named is T2, C-terminal fragment of PreScission-cleaved His10-Vms1(1-182-PP-417)-HA (S. cerevisiae, UniProt Q04311 183-417).
T2 sequence (looked up): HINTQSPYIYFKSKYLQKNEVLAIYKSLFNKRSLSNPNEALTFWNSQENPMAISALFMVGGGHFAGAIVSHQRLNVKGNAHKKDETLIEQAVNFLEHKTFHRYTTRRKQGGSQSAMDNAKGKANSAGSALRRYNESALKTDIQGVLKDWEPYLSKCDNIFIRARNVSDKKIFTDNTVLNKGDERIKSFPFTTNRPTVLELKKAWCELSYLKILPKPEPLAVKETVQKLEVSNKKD
The test is described as follows: SEC. Background: SEC sorts molecules by how far they enter the pores of the column.

Test [2] deals with T3, C-terminal fragment of PreScission-cleaved His10-Vms1(1-182-PP-417, C387A, E25C, S228C)-HA (S. cerevisiae, UniProt Q04311 183-417, S228C | C387A).
T3 sequence (looked up): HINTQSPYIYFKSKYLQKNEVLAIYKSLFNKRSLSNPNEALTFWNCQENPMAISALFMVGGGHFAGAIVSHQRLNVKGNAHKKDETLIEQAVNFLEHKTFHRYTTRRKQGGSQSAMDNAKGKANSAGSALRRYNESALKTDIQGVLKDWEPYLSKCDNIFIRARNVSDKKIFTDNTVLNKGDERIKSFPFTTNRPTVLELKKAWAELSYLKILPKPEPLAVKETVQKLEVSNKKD
Briefly: cross-linking.

Test [3] addresses T4, C-terminal fragment of PreScission-cleaved His10-Vms1(1-182-PP-417, C387A, K32C, T224C)-HA (S. cerevisiae, UniProt Q04311 183-417, T224C | C387A).
T4 sequence (looked up): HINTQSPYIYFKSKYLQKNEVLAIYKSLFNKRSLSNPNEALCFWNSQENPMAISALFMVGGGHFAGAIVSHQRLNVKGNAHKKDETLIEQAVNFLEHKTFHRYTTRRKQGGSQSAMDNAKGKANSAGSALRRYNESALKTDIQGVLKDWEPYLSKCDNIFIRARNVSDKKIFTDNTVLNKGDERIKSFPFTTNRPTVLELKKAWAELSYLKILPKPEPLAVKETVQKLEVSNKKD
The test is described as follows: cross-linking.

Test [4] concerns the target T5, C-terminal fragment of PreScission-cleaved His10-Vms1(1-182-PP-417, C387A, K32C, N218C)-HA (S. cerevisiae, UniProt Q04311 183-417, N218C | C387A).
T5 sequence (looked up): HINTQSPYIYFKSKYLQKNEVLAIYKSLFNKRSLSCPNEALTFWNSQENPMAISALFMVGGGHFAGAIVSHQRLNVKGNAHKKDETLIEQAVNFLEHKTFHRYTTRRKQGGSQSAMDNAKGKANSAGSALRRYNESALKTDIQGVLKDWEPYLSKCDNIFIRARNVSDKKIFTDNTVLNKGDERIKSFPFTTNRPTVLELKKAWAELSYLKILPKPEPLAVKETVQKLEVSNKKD
Briefly: cross-linking.

For `CC(C)[C@@H](C)/C=C/[C@@H](C)[C@H]1CC[C@@H]2[C@]1(C)CC[C@H]1[C@]23C=C[C@]2(C[C@@H](O)CC[C@]12C)OO3` [EP, ergosterol peroxide], the “lipid blot on nitrocellulose; liposome floatation assay” value on Vms1 (Vms1^1-417) was “Vms1 displayed comparable binding to nitrocellulose-spotted commercial EP and the purified C28H44O3”.

B1: N-terminal fragment of PreScission-cleaved His10-Vms1(1-182-PP-417)-HA (domain or fragment, S. cerevisiae, UniProt Q04311 1-182, looked up)
chain: MNSQKASKMTGSLKKNDLYIFDLSEQLLNSLKLMSFDSTLREVEVEKTSDNDRNKESGDLQIARKKVTSNVMRCSVCQMSFDSRNEQKAHYQTDYHLMNVKRNLRGLDILSVEEFDALISKEHGIKSEDENSGGEQTSSDHEESEEASDRDPDLQTNNYMETIIENDLQKLGFQKDESDAIS
Regarding B1, the binding result in test [1] is on record as “binds”.

B2: N-terminal fragment of PreScission-cleaved His10-Vms1(1-182-PP-417, C387A, E25C, S228C)-HA (domain or fragment, S. cerevisiae, UniProt Q04311 1-182, looked up)
chain: MNSQKASKMTGSLKKNDLYIFDLSCQLLNSLKLMSFDSTLREVEVEKTSDNDRNKESGDLQIARKKVTSNVMRCSVCQMSFDSRNEQKAHYQTDYHLMNVKRNLRGLDILSVEEFDALISKEHGIKSEDENSGGEQTSSDHEESEEASDRDPDLQTNNYMETIIENDLQKLGFQKDESDAIS
As to B2, the binding result in test [2] is on record as “binds”.

B3: N-terminal fragment of PreScission-cleaved His10-Vms1(1-182-PP-417, C387A, K32C, T224C or N218C)-HA (domain or fragment, S. cerevisiae, UniProt Q04311 1-182, looked up)
chain: MNSQKASKMTGSLKKNDLYIFDLSEQLLNSLCLMSFDSTLREVEVEKTSDNDRNKESGDLQIARKKVTSNVMRCSVCQMSFDSRNEQKAHYQTDYHLMNVKRNLRGLDILSVEEFDALISKEHGIKSEDENSGGEQTSSDHEESEEASDRDPDLQTNNYMETIIENDLQKLGFQKDESDAIS
For the molecule B3, the binding result in test [3] and in test [4] was “binds” in each case.

The values above are taken from publication PMC5837041 (Molecular cell, 2017).
